The target in series [1] is T1, rat Oct3 (Rattus norvegicus, UniProt O88446).
T1 sequence (O88446 1-551): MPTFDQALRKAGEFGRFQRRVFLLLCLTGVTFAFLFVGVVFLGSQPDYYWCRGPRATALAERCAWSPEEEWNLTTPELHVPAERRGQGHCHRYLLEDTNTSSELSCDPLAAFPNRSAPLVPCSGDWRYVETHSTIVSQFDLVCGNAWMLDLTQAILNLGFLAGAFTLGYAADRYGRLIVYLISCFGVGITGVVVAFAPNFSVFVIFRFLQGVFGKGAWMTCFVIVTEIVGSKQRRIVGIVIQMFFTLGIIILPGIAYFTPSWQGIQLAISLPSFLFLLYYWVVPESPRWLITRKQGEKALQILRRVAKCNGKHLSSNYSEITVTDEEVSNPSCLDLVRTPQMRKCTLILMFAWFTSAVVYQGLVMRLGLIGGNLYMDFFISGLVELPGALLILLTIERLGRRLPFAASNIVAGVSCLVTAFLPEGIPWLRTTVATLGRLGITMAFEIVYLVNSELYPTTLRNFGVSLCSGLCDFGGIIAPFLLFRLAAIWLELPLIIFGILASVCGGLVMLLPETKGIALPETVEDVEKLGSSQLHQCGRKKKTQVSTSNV
Nature of the series: Cellular transport assay, HEK-293 cells expressing rat Oct3. The note with it: positive substrate 20 μM, 10 min; rat Oct3.

For series [2], the target named is T2, rat Octn2 (Rattus norvegicus, UniProt O70594).
T2 sequence (O70594 1-557): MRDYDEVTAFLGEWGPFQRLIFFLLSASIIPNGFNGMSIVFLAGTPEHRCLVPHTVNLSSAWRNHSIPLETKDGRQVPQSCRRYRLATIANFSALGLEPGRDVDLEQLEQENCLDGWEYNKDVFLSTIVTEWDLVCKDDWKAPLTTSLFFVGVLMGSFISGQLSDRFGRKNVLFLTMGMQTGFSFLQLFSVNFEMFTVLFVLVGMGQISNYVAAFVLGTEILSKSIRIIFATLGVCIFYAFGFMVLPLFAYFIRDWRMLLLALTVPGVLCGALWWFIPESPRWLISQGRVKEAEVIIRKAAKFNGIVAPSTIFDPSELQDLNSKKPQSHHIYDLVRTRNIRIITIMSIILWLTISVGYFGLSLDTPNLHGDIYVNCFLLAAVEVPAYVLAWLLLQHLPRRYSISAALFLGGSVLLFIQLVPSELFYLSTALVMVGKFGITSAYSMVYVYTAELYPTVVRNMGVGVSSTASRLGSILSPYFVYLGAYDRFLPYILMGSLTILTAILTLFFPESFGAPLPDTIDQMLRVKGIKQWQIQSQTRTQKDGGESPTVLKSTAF
Kind of series: Cellular transport assay, HEK-293 cells expressing rat Octn2. Conditions: positive substrate 20 μM, 10 min; rat Octn2.

The target in series [3] is T3, human OCT3 (Homo sapiens, UniProt O75751).
T3 sequence (O75751 1-556): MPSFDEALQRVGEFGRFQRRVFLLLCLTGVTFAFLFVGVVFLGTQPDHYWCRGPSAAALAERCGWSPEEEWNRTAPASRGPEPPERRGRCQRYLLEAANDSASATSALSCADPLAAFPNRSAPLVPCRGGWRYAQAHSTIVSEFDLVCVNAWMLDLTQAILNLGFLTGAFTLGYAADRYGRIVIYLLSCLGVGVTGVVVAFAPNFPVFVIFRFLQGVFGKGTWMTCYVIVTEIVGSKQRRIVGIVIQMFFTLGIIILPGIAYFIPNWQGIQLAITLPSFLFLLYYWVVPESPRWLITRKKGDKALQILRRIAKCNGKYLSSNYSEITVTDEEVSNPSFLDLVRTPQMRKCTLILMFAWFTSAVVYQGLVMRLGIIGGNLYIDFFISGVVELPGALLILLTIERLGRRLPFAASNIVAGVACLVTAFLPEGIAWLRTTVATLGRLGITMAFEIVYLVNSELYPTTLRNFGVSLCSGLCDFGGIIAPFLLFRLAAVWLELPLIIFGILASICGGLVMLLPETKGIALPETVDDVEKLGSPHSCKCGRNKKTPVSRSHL
Nature of the series: Cellular transport assay, HEK-293 cells expressing human OCT3. Conditions: positive substrate 20 μM, 10 min; human OCT3.

Substrate in series [4]: O=C(/C=C/c1ccc(O)c(O)c1)O[C@H](Cc1ccc(O)c(O)c1)C(=O)O
Nature of the series: cells, lysate or membranes named. The note with it: 5 min incubation, concentrations in Table 1, 37.0 °C.

Substrate in series [5]: O=C(O)Cc1c(/C=C/C(=O)OC(Cc2ccc(O)c(O)c2)C(=O)O)ccc(O)c1O
Kind of series: cells, lysate or membranes named. The note with it: 5 min incubation, concentrations in Table 1, 37.0 °C.

Substrate in series [6]: O=C(O)c1ccc(O)c(O)c1
Nature of the series: cells, lysate or membranes named. Conditions: 5 min incubation, concentrations in Table 1, 37.0 °C.

Setting [7] is: other: rat renal basolateral uptake Oat1.
[8] abbreviates: other: human renal basolateral uptake OAT1.

Consider `CC[N+](CC)(CC)CC` [TEA, tetraethylammonium, reference compound], for which the “TransportTC/TransportMC ratio, positive substrate” value in series [1] is reported as 3.90 ± 0.88 (TEA); in series [2], 9.85 ± 0.74 (TEA); in series [3], 4.45 ± 0.27 (TEA).

B1: rat Oat1 (Rattus norvegicus) (protein)
chain: MAFNDLLKQVGGVGRFQLIQVTMVVAPLLLMASHNTLQNFTAAIPPHHCRPPANANLSKDGGLEAWLPLDKQGQPESCLRFTSPQWGPPFYNGTEANGTRVTEPCIDGWVYDNSTFPSTIVTEWNLVCSHRAFRQLAQSLYMVGVLLGAMVFGYLADRLGRRKVLILNYLQTAVSGTCAAYAPNYTVYCVFRLLSGMSLASIAINCMTLNVEWMPIHTRAYVGTLIGYVYSLGQFLLAGIAYAVPHWRHLQLVVSVPFFIAFIYSWFFIESARWYSSSGRLDLTLRALQRVARINGKQEEGAKLSIEVLRTSLQKELTLSKGQASAMELLRCPTLRHLFLCLSMLWFATSFAYYGLVMDLQGFGVSMYLIQVIFGAVDLPAKFVCFLVINSMGRRPAQMASLLLAGICILVNGIIPKSHTIIRTSLAVLGKGCLASSFNCIFLYTGELYPTVIRQTGLGMGSTMARVGSIVSPLVSMTAEFYPSMPLFIFGAVPVVASAVTALLPETLGQPLPDTVQDLKSRSRGKQNQQQQEQQKQMMPLQASTQEKNGL
For B1, the Vmax in series [4] (setting [7]) came out at 0.000206 µmol/min/mg; in series [5] (setting [7]) it was 0.000115 µmol/min/mg; in series [6] (setting [7]), 0.000446 µmol/min/mg. Also, the values for the Vmax/Km in series [4] (setting [7]) and in series [5] (setting [7]) were 3.47 µL/min/mg and 4.72 µL/min/mg, respectively.

B2: human OAT1 (Homo sapiens) (protein)
chain: MAFNDLLQQVGGVGRFQQIQVTLVVLPLLLMASHNTLQNFTAAIPTHHCRPPADANLSKNGGLEVWLPRDRQGQPESCLRFTSPQWGLPFLNGTEANGTGATEPCTDGWIYDNSTFPSTIVTEWDLVCSHRALRQLAQSLYMVGVLLGAMVFGYLADRLGRRKVLILNYLQTAVSGTCAAFAPNFPIYCAFRLLSGMALAGISLNCMTLNVEWMPIHTRACVGTLIGYVYSLGQFLLAGVAYAVPHWRHLQLLVSAPFFAFFIYSWFFIESARWHSSSGRLDLTLRALQRVARINGKREEGAKLSMEVLRASLQKELTMGKGQASAMELLRCPTLRHLFLCLSMLWFATSFAYYGLVMDLQGFGVSIYLIQVIFGAVDLPAKLVGFLVINSLGRRPAQMAALLLAGICILLNGVIPQDQSIVRTSLAVLGKGCLAASFNCIFLYTGELYPTMIRQTGMGMGSTMARVGSIVSPLVSMTAELYPSMPLFIYGAVPVAASAVTVLLPETLGQPLPDTVQDLESRWAPTQKEAGIYPRKGKQTRQQQEHQKYMVPLQASAQEKNGL
In the case of B2, the Vmax turned out to be 0.000181 µmol/min/mg in series [4] (setting [8]), 3.76e-05 µmol/min/mg in series [5] (setting [8]) and 0.000242 µmol/min/mg in series [6] (setting [8]). Moreover, the Vmax/Km was 2.55 µL/min/mg in series [4] (setting [8]) and 2.08 µL/min/mg in series [5] (setting [8]).
